Results on 19 molecules are retold here after patent US20230235013A1 (MABSOLVE, published 2023).

Numbering of substitutions follows the chain as printed. Names may count otherwise.

The target of test [1] is T1, Human C1q (Sigma Cat. No. 20476), HRP-labelled (human, UniProt P02745 23-245; P02746 28-253; P02747 29-245).
T1 construct: Coupled to horse-radish peroxidase with Lightning-Link kit; also called HRP-labelled C1q
In words: ELISA, antibody coated, HRP-C1q; Expt 1, buffer alone 0.053.

Test [2] addresses T1, Human C1q (Sigma Cat. No. 20476), …. In words: ELISA, antibody coated, HRP-C1q; Expt 2, buffer alone 0.051.
Test [3] concerns the target T2, Histidine-tagged recombinant human FcγRI (CD64) (human, UniProt P12314 16-288).
T2 construct: bought; also called Sino Biological Cat. No. 12056-H08H
In words: SPR, captured His-receptor.

Test [4] deals with T3, human FcγRIIA (R131, Sino Biological Cat. No. 10374-H08H) (human, UniProt P12318 34-218).
T3 construct: bought; also called human FcγRIIa R131 allele; FcγRII allele R131
T3 sequence (looked up): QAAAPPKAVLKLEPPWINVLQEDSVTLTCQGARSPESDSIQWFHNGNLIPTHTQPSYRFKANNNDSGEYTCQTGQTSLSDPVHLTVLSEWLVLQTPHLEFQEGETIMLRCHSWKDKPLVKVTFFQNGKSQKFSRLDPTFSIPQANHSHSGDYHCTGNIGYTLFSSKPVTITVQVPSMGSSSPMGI
In words: SPR, captured His-receptor.

Test [5] addresses T4, human FcγRIIIB (NA2 allotype, Sino Biological Cat. No. 11046-H08H) (human, UniProt O75015 17-200).
T4 construct: bought; also called human FcγRIIIb NA2 allele
Put plainly: SPR, captured His-receptor.

In test [6] the target is T2, Histidine-tagged recombinant human …. In words: SPR, culture supernatant, captured His-FcγRI.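 Note: biacore T200 SPR at 25 °C, anti-His capture, supernatants of HEK293 cells expressing IgG1 Fc variants injected 1 min, reference-subtracted response read 55 s after injection start.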

B1: anti-CD20 (rituximab variable regions) mouse IgG2a L234Q/L235S/G236R (antibody)
heavy: QVQLQQPGAELVKPGASVKMSCKASGYTFTSYNMHWVKQTPGRGLEWIGAIYPGNGDTSYNQKFKGKATLTADKSSSTAYMQLSSLTSEDSAVYYCARSTYYGGDWYFNVWGAGTTVTVSSAKTTAPSVYPLAPVCGDTTGSSVTLGCLVKGYFPEPVTLTWNSGSLSSGVHTFPAVLQSDLYTLSSSVTVTSSTWPSQSITCNVAHPASSTKVDKKIEPRGPTIKPCPPCKCPAPNQSRGPSVFIFPPKIKDVLMISLSPIVTCVVVDVSEDDPDVQISWFVNNVEVHTAQTQTHREDYNSTLRVVSALPIQHQDWMSGKEFKCKVNNKDLPAPIERTISKPKGSVRAPQVYVLPPPEEEMTKKQVTLTCMVTDFMPEDIYVEWTNNGKTELNYKNTEPVLDSDGSYFMYSKLRVEKKNWVERNSYSCSVVHEGLHNHHTTKSFSRTPGK
light: QIVLSQSPAILSASPGEKVTMTCRASSSVSYIHWFQQKPGSSPKPWIYATSNLASGVPVRFSGSGSGTSYSLTISRVEAEDAATYYCQQWTSNPPTFGGGTKLEIKRADAAPTVSIFPPSSEQLTSGGASVVCFLNNFYPKDINVKWKIDGSERQNGVLNSWTDQDSKDSTYSMSSTLTLTKDEYERHNSYTCEATHKTSTSPIVKSFNRNEC
notes: copies: 2 + 2
Consider B1, for which the “Mean Absorbance” value in test [1] is 1.45 absorbance (450 nm); in test [2], 0.953 absorbance (450 nm).

B2: anti-CD52 (alemtuzumab) human IgG1 wild-type reference (antibody)
heavy: not shown
light: not shown
notes: also called 4-1; copies: 2 + 2
In the case of B2, the results for the “Mean Absorbance” value in test [1] and in test [2] were 1.42 absorbance (450 nm) and 0.649 absorbance (450 nm), respectively.

B3: anti-CD52 (alemtuzumab) human IgG1 L234S/L235T/G236R (antibody)
heavy: QVQLQESGPGLVRPSQTLSLTCTVSGFTFTDFYMNWVRQPPGRGLEWIGFIRDKAKGYTTEYNPSVKGRVTMLVDTSKNQFSLRLSSVTAADTAVYYCAREGHTAAPFDYWGQGSLVTVSSASTKGPSVFPLAPSSKSTSGGTAALGCLVKDYFPEPVTVSWNSGALTSGVHTFPAVLQSSGLYSLSSVVTVPSSSLGTQTYICNVNHKPSNTKVDKKVEPKSCDKTHTCPPCPAPESTRGPSVFLFPPKPKDTLMISRTPEVTCVVVDVSHEDPEVKFNWYVDGVEVHNAKTKPREEQYNSTYRVVSVLTVLHQDWLNGKEYKCKVSNKALPAPIEKTISKAKGQPREPQVYTLPPSRDELTKNQVSLTCLVKGFYPSDIAVEWESNGQPENNYKTTPPVLDSDGSFFLYSKLTVDKSRWQQGNVFSCSVMHEALHNHYTQKSLSLSPGK
light: not shown
notes: EU numbering; also called 4-52; copies: 2 + 2
With B3, the “Mean Absorbance” value is 0.052 absorbance (450 nm) in test [1] and 0.053 absorbance (450 nm) in test [2].

B4: anti-CD52 (alemtuzumab) human IgG1 L234S/L235V/G236R (antibody)
heavy: B3 heavy with T239V
light: not shown
notes: EU numbering; also called 4-53; copies: 2 + 2
For the molecule B4, the “Mean Absorbance” value in test [1] was 0.057 absorbance (450 nm); in test [2], 0.059 absorbance (450 nm).

B5: anti-CD52 (alemtuzumab) human IgG1 L234T/L235Q/G236R (antibody)
heavy: B3 heavy with S238T, T239Q
light: not shown
notes: EU numbering; also called 4-60; copies: 2 + 2
Consider B5, for which the “Mean Absorbance” value in test [1] is 0.056 absorbance (450 nm); in test [2], 0.052 absorbance (450 nm).

B6: anti-CD52 (alemtuzumab) human IgG1 N297Q (aglycosyl) (antibody)
heavy: not shown
light: not shown
notes: EU numbering; also called 4-67; copies: 2 + 2
Regarding B6, the figures for the “Mean Absorbance” value in test [1] and in test [2] were 0.051 absorbance (450 nm) and 0.044 absorbance (450 nm), respectively.

B7: anti-CD52 (alemtuzumab) human IgG1 L234G/L235S/G236R (antibody)
heavy: B3 heavy with S238G, T239S
light: not shown
notes: EU numbering; also called 4-19; copies: 2 + 2
For the molecule B7, the “Mean Absorbance” value is 0.053 absorbance (450 nm) in test [1] and 0.056 absorbance (450 nm) in test [2].

B8: anti-CD3 (muromonab) human IgG1 wild-type reference (antibody)
heavy: not shown
light: QIVLTQSPAIMSASPGEKVTMTCSASSSVSYMNWYQQKSGTSPKRWIYDTSKLASGVPAHFRGSGSGTSYSLTISGMEAEDAATYYCQQWSSNPFTFGSGTKLEIKRTVAAPSVFIFPPSDEQLKSGTASVVCLLNNFYPREAKVQWKVDNALQSGNSQESVTEQDSKDSTYSLSSTLTLSKADYEKHKVYACEVTHQGLSSPVTKSFNRGEC
notes: also called 3-1; copies: 2 + 2
As to B8, the figures for the “Mean Absorbance” value in test [1] and in test [2] were 0.769 absorbance (450 nm) and 0.432 absorbance (450 nm), respectively.

B9: anti-CD3 (muromonab) human IgG1 L234S/L235V/G236R (antibody)
heavy: not shown
light: B8 light
notes: EU numbering; also called 3-53; copies: 2 + 2
With B9, the “Mean Absorbance” value in test [1] was 0.047 absorbance (450 nm); in test [2], 0.042 absorbance (450 nm).

B10: anti-CD3 (muromonab) human IgG1 L234A/L235A/P329G (LALAPG reference) (antibody)
heavy: not shown
light: B8 light
notes: EU numbering; also called 3-66; copies: 2 + 2
B10: the “Mean Absorbance” value in test [1] was 0.052 absorbance (450 nm); in test [2] it was 0.044 absorbance (450 nm).

B11: anti-CD3 (muromonab) human IgG1 N297Q (aglycosyl) (antibody)
heavy: not shown
light: B8 light
notes: EU numbering; also called 3-67; copies: 2 + 2
As to B11, the “Mean Absorbance” value was 0.052 absorbance (450 nm) in test [1] and 0.051 absorbance (450 nm) in test [2].

B12: anti-CD3 (muromonab) human IgG1 L234T/L235Q/G236R (antibody)
heavy: not shown
light: B8 light
notes: EU numbering; also called 3-60; copies: 2 + 2
On to B12, for which the “Mean Absorbance” value in test [1] is 0.047 absorbance (450 nm); in test [2] it was 0.045 absorbance (450 nm).

B13: anti-CD3 (muromonab) human IgG1 L234G/L235S/G236R (antibody)
heavy: not shown
light: B8 light
notes: EU numbering; also called 3-19; copies: 2 + 2
In the case of B13, the “Mean Absorbance” value is 0.052 absorbance (450 nm) in test [1] and 0.049 absorbance (450 nm) in test [2].

B14: anti-CD3 (muromonab) human IgG1 L234T/L235T/G236R (antibody)
heavy: not shown
light: B8 light
notes: EU numbering; also called 3-63; copies: 2 + 2
With B14, the “Mean Absorbance” value in test [1] is 0.047 absorbance (450 nm); in test [2], 0.048 absorbance (450 nm).

B15: anti-CD3 (muromonab) human IgG1 L234S/L235T/G236R (antibody)
heavy: not shown
light: B8 light
notes: EU numbering; also called 3-52; copies: 2 + 2
For the molecule B15, the “Mean Absorbance” value in test [1] is 0.048 absorbance (450 nm); in test [2], 0.046 absorbance (450 nm).

B16: anti-CD3 (muromonab) human IgG1 L234A/L235A (LALA) (antibody)
heavy: not shown
light: B8 light
notes: EU numbering; also called 3-65; copies: 2 + 2
Take B16: the “Mean Absorbance” value in test [1] is 0.053 absorbance (450 nm); in test [2], 0.051 absorbance (450 nm).

B17: anti-CD20 human IgG1 L234G/L235S/G236R (antibody)
heavy: QVQLQQPGAELVKPGASVKMSCKASGYTFTSYNMHWVKQTPGRGLEWIGAIYPGNGDTSYNQKFKGKATLTADKSSSTAYMQLSSLTSEDSAVYYCARSTYYGGDWYFNVWGAGTTVTVSSASTKGPSVFPLAPSSKSTSGGTAALGCLVKDYFPEPVTVSWNSGALTSGVHTFPAVLQSSGLYSLSSVVTVPSSSLGTQTYICNVNHKPSNTKVDKKVEPKSCDKTHTCPPCPAPEGSRGPSVFLFPPKPKDTLMISRTPEVTCVVVDVSHEDPEVKFNWYVDGVEVHNAKTKPREEQYNSTYRVVSVLTVLHQDWLNGKEYKCKVSNKALPAPIEKTISKAKGQPREPQVYTLPPSRDELTKNQVSLTCLVKGFYPSDIAVEWESNGQPENNYKTTPPVLDSDGSFFLYSKLTVDKSRWQQGNVFSCSVMHEALHNHYTQKSLSLSPGK
light: QIVLSQSPAILSASPGEKVTMTCRASSSVSYIHWFQQKPGSSPKPWIYATSNLASGVPVRFSGSGSGTSYSLTISRVEAEDAATYYCQQWTSNPPTFGGGTKLEIKRTVAAPSVFIFPPSDEQLKSGTASVVCLLNNFYPREAKVQWKVDNALQSGNSQESVTEQDSKDSTYSLSSTLTLSKADYEKHKVYACEVTHQGLSSPVTKSFNRGEC
notes: also called 1-59; 2-19; copies: 2 + 2
As to B17, the binding result in test [3], in test [4] and in test [5] was “no binding (tested: 100 µg/mL)” each time. Also, in test [6], the Mean binding response is 21.8 RU.

B18: anti-CD20 human IgG1 L234T/L235Q/G236R (antibody)
heavy: B17 heavy with G238T, S239Q
light: B17 light
notes: also called 2-60; copies: 2 + 2
Consider B18, for which the binding result in test [3], in test [4] and in test [5] was “no binding (tested: 100 µg/mL)” in each case. In test [6], the Mean binding response stood at 17 RU.

B19: anti-CD20 human IgG1 L234S/L235T/G236R (antibody)
heavy: B17 heavy with G238S, S239T
light: B17 light
notes: also called 1-150; 2-52; copies: 2 + 2
B19: the binding result in test [3], in test [4] and in test [5] was “no binding (tested: 100 µg/mL)” throughout. In addition, in test [6], the Mean binding response worked out at 16.2 RU.
